Measurements reported in paper doi:10.1101/303537 (bioRxiv, 2018).
Where no end group is shown, it is not given here.

Tests used:
[1] = molecular target: Retinoblastoma binding protein 4 (RBBP4) (human, UniProt Q09028 1-425); assay: fluorescence polarisation
[2] = molecular target: Retinoblastoma binding protein 7 (RBBP7) (human, UniProt Q16576 1-425); assay: fluorescence polarisation
Sequence of Retinoblastoma binding protein 7 (RBBP7) (Q16576 whole entry): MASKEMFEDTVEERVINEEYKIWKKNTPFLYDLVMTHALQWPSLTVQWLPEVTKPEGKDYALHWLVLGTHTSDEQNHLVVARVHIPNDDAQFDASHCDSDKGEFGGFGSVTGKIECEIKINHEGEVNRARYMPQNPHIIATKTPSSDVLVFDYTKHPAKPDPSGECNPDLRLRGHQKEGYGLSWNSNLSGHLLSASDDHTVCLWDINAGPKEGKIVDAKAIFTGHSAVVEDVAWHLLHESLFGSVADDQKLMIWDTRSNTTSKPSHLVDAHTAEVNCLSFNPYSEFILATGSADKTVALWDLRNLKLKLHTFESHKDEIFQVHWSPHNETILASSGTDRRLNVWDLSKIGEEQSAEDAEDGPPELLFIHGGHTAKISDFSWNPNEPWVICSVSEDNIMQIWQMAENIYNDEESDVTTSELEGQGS

Sequence of Retinoblastoma binding protein 4 (RBBP4) (Q09028 whole entry): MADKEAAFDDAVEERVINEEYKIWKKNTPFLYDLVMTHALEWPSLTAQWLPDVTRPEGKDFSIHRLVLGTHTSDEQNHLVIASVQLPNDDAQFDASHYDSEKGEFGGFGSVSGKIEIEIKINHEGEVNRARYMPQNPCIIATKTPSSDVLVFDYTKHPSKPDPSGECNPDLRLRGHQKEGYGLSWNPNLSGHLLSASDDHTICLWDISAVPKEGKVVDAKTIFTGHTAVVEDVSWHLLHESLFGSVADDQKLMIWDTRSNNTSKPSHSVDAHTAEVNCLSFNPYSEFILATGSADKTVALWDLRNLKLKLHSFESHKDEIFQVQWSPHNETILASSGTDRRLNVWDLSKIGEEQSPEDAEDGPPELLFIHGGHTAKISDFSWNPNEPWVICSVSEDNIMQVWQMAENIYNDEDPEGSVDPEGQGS

| Binder | Kd [1] [nM] | Kd [2] [nM] |
| --- | --- | --- |
| LIAPIFLHRTLTYMSHR (also: FITC label (position not given here)) [FITC-labeled SUZ12 (105–121) peptide] | 6400 ± 600 |  |
| KSKKKSRKGRPRKTN (also: FITC label (position not given here)) [FITC-labeled PHF6 (157–171) peptide] | 201 ± 102 |  |
| MSRRKQSNPRQIKRS (also: FITC label (position not given here)) [FITC-labeled FOG-1 (1–15) peptide] | 488 ± 245 |  |
| FITC-labeled histone H4 (16–41) peptide (FITC label (position not given)) peptide: not shown |  | 135 ± 12 |
